The source of these data is article PMC6938514.

The target of assay [1] is MBPeng-KFL_(PYK2) (Escherichia coli | not stated) (UniProt Q14289). The assay can be described thus: crystal structure; dimeric SEC fractions crystallised by hanging drop at 23 °C, 15 mg/ml, pH 10.5; space group P1.
Assay [2] shares this target. The assay can be described thus: SEC; large-scale Superdex 200 after the amylose column; protein applied at 15 mg/ml; 20 mM HEPES pH 7.5, 150 mM NaCl, 2 mM maltose, 2 mM DTT.
The target is the same in assay [3]. Kind of assay: SEC-SAXS; SWING beamline; 20 mM HEPES, 150 mM NaCl, 2 mM DTT, 2 mM maltose; dimer and monomer peaks fitted with models from the crystal structures. On the technique in general: SEC sorts molecules by how far they enter the pores of the column.
For assay [4], the target named is MBPeng-KFLFAK (Escherichia coli | not stated). The assay can be described thus: SEC; central fractions of the monomeric or dimeric peak incubated for one week at 37 °C, then analytical SEC.

On to “MBPeng-KFL_(PYK2) (from UniProt Q14289 790-839)”, for which the stoichiometry N in assay [1], in assay [2] and in assay [3] was 2 throughout.
Regarding “MBPeng-KFLFAK (from UniProt Q05397 805-832)”, in assay [4], the percent of the dimeric fraction converted into monomers after one week at 37 °C was 20% and the percent of the monomeric fraction converted into dimers after one week at 37 °C was found to be 20%.

As usually defined, the stoichiometry N is the number of molecules, sites or subunits per partner or assembly.
